B1: HDV Ribozyme (parent)
chain: GGCCGGCAUGGUCCCAGCCUCCUCGCUGGCGCCGGCUGGGCAACAUUCCGAGGGGACCGUCCCCUCGGUAAUGGCGAAUGGGACCCA

The variants in the series derive from B1. Briefly: self-cleavage, relative activity (ratio to wild type); higher = more cleavage; co-transcriptional.
For the variant C18U C75G, the self-cleavage amounted to 0.133.

On to C61U C84U, for which the self-cleavage was 0.636.

Take U23G C84G: the self-cleavage came to 0.388.

Take U27A G29U: the self-cleavage worked out at 0.

As for C14A C19U, the self-cleavage came to 0.182.

In the case of G39A A45C, the self-cleavage stood at 0.188.

Turning to G2U C62G, the self-cleavage was found to be 0.136.

On to C32G A83C, for which the self-cleavage stood at 0.0346.

On to G52C G76C, for which the self-cleavage was determined as 1.03.

For G29U A83G, the self-cleavage was found to be 0.0329.

Regarding U9A A77C, the self-cleavage worked out at 0.383.

In the case of C15A A51U, the self-cleavage was found to be 0.573.

For G73U C84G, the self-cleavage was determined as 0.329.

As for A42C U79G, the self-cleavage came out at 0.151.

As for C63U C86A, the self-cleavage is 0.96.

For G34A G40A, the self-cleavage was found to be 0.181.

In the case of C32A G35A, the self-cleavage amounted to 0.122.

As to G59A C66U, the self-cleavage came to 0.849.

Regarding G6C C48G, the self-cleavage worked out at 0.199.

With G34C G74A, the self-cleavage is 0.0354.

Regarding C33A G76A, the self-cleavage came to 0.228.

Consider C24G U65A, for which the self-cleavage was determined as 0.208.

G1U A87G: the self-cleavage was found to be 0.332.

Consider U46G G68U, for which the self-cleavage was 0.554.

As for G25A U27C, the self-cleavage was 0.538.

With C22G G81U, the self-cleavage came to 0.089.

With U20G A83U, the self-cleavage was determined as 0.0554.

On to G10C A78G, for which the self-cleavage came to 0.399.

Regarding U23G A56C, the self-cleavage amounted to 0.978.

Regarding G1A G10U, the self-cleavage amounted to 0.153.

Take G11U G68A: the self-cleavage stood at 0.205.

As for G1C U60C, the self-cleavage was 0.0639.

G10U C18G: the self-cleavage was determined as 0.111.

Consider C21U C86U, for which the self-cleavage amounted to 0.282.

As for C24U C30A, the self-cleavage came to 0.0482.

On to U9C U20A, for which the self-cleavage was 0.

For the variant G55C A71C, the self-cleavage is 0.903.

On to A51G C63U, for which the self-cleavage worked out at 0.969.

As to A51G A70C, the self-cleavage turned out to be 0.974.

As to C64G C85G, the self-cleavage was 0.872.

U37C C75G: the self-cleavage stood at 0.0627.

Take U27C G55U: the self-cleavage was 0.426.

Regarding U20C U65C, the self-cleavage was 0.401.

With C49G A71C, the self-cleavage stood at 0.302.

On to G5C G67A, for which the self-cleavage is 0.353.

As to C4U C48G, the self-cleavage worked out at 0.554.

Take C63G C85U: the self-cleavage was 0.92.

Turning to G29A C63U, the self-cleavage is 0.226.

Turning to G1C C75G, the self-cleavage was determined as 0.178.

For the variant C14A, the self-cleavage is 0.761.

In the case of A45U G67U, the self-cleavage came out at 0.801.

Turning to U23G A42U, the self-cleavage was found to be 0.0997.

In the case of U12C C75G, the self-cleavage was determined as 0.166.

With G28A U60A, the self-cleavage is 0.178.

G10A G50U: the self-cleavage turned out to be 0.67.

For the variant A8G C22A, the self-cleavage came out at 0.101.

Turning to G39U C86U, the self-cleavage was 0.858.

As for U65A U69G, the self-cleavage was determined as 0.806.

Turning to A42G G82U, the self-cleavage worked out at 0.0504.

As to G54C U65C, the self-cleavage was 0.92.

Take G67A A77C: the self-cleavage is 0.325.

Regarding U37G G40A, the self-cleavage was 0.302.

As for C41G A42U, the self-cleavage is 0.886.

For the variant G52U C57U, the self-cleavage was determined as 1.24.

Take U27G A87U: the self-cleavage amounted to 0.763.

Turning to U9C A43U, the self-cleavage was determined as 0.378.

As for U79G C84G, the self-cleavage is 0.185.

Turning to G34C C44G, the self-cleavage was found to be 0.0332.

As to C48U A56U, the self-cleavage is 0.987.

G1A G2U: the self-cleavage stood at 0.852.

For the variant G11A G25U, the self-cleavage was 0.0801.

For C62U U65A, the self-cleavage amounted to 1.08.

Consider U47A G73U, for which the self-cleavage stood at 0.142.

Regarding A45G C64G, the self-cleavage came to 0.591.

Regarding U20C C32U, the self-cleavage was found to be 0.0426.

Turning to C48G G55A, the self-cleavage was found to be 0.888.

In the case of G34C C41A, the self-cleavage came out at 0.233.

For the variant U37A G74A, the self-cleavage was 0.166.

Consider G10U C14G, for which the self-cleavage came to 0.166.

As for G53C C86G, the self-cleavage worked out at 0.903.

For G50A G82U, the self-cleavage was 0.364.

On to A45C C75A, for which the self-cleavage was 0.

Regarding A45C C75G, the self-cleavage turned out to be 0.237.

Take C22U G38C: the self-cleavage worked out at 0.122.

Regarding C7G A77C, the self-cleavage is 0.0692.

As to C22U A51U, the self-cleavage was 0.708.

As for G31A G39A, the self-cleavage was 0.257.

With U46C C66U, the self-cleavage stood at 0.886.

For C84U, the self-cleavage worked out at 0.804.

On to G1C C36A, for which the self-cleavage worked out at 0.151.

C21U A77C: the self-cleavage amounted to 0.125.

As for C61G C63A, the self-cleavage stood at 0.718.

C3A U72A: the self-cleavage came to 0.07.

On to C49U G67U, for which the self-cleavage was found to be 0.859.

With C13U C24A, the self-cleavage came out at 0.381.

In the case of G40A C86A, the self-cleavage is 1.2.

On to A42G A43G, for which the self-cleavage stood at 0.

For the variant C13A C36U, the self-cleavage was 0.0432.

With A42G U72C, the self-cleavage was determined as 0.475.

Consider G25C A43C, for which the self-cleavage was determined as 0.0554.

With G53C G54C, the self-cleavage came out at 0.706.

Consider C18A U60G, for which the self-cleavage was 0.

As to G35A G50A, the self-cleavage worked out at 0.692.

Regarding G25U G82C, the self-cleavage turned out to be 0.0755.

On to G39A C41A, for which the self-cleavage turned out to be 0.471.

As for C30A C85A, the self-cleavage was 0.295.

As to C49G G81C, the self-cleavage is 0.196.

On to G39A G73C, for which the self-cleavage is 0.205.

On to C3G G17U, for which the self-cleavage is 0.073.

Take G73A C75A: the self-cleavage is 0.246.

Take G17U G52C: the self-cleavage is 0.591.

For U27A G40A, the self-cleavage was found to be 0.886.

As to G52C C66G, the self-cleavage amounted to 0.672.

G10A A42U: the self-cleavage worked out at 0.244.

For C22G C36A, the self-cleavage is 0.0773.

Consider G17A C19U, for which the self-cleavage amounted to 0.119.

In the case of C36A C41U, the self-cleavage came out at 0.171.

Turning to G10U C24A, the self-cleavage was 0.328.

In the case of A56G U60A, the self-cleavage was determined as 0.914.

As for A77U A78U, the self-cleavage was determined as 0.259.

Regarding G40A G67C, the self-cleavage turned out to be 0.992.

As to C48U C63A, the self-cleavage amounted to 0.791.

For the variant G29A C64U, the self-cleavage was found to be 0.144.

As to G1A C49U, the self-cleavage came to 0.

For G31U U37C, the self-cleavage is 0.415.

For C15U C66G, the self-cleavage amounted to 0.831.

On to C14U C19U, for which the self-cleavage worked out at 0.0723.

For G80A G82A, the self-cleavage was 0.244.

For C48U C57U, the self-cleavage came to 0.969.

On to C32G U46A, for which the self-cleavage turned out to be 0.0332.

In the case of C4G C64A, the self-cleavage was 0.219.

Take C41U G50A: the self-cleavage was 1.01.

On to C64A, for which the self-cleavage amounted to 0.908.

For G25U U65C, the self-cleavage stood at 0.237.

With C3U C22A, the self-cleavage was 0.161.

Take G1A G38C: the self-cleavage came out at 0.0405.

For C15U C63A, the self-cleavage was 1.03.

With C61G U79C, the self-cleavage came out at 0.499.

Consider G25A G74U, for which the self-cleavage came out at 0.0583.

For U12A U37A, the self-cleavage amounted to 0.

Consider G50U A56U, for which the self-cleavage was 1.06.

In the case of U9G G39C, the self-cleavage was determined as 0.196.

Consider A51C G67A, for which the self-cleavage is 0.77.

As to C13G G25C, the self-cleavage is 0.0875.

Take G39U A71G: the self-cleavage was 0.383.

Take G52A G55C: the self-cleavage was determined as 0.923.

On to C48G G68U, for which the self-cleavage was found to be 0.88.

In the case of U20G C21G, the self-cleavage came out at 0.

Turning to C44U A87U, the self-cleavage is 0.718.

Consider C15G G81A, for which the self-cleavage stood at 0.297.

Take G39C A43G: the self-cleavage was 0.147.

Regarding G74A G80A, the self-cleavage stood at 0.182.

Take G74A G80C: the self-cleavage worked out at 0.167.

Turning to C58G C75U, the self-cleavage was determined as 0.122.

Consider A83U, for which the self-cleavage turned out to be 0.523.

On to G2U U60G, for which the self-cleavage came out at 0.0831.

Turning to C57A G59C, the self-cleavage came to 0.923.

For the variant U46C C62U, the self-cleavage was found to be 0.918.

Turning to G5U A56G, the self-cleavage came to 0.391.

Turning to G5U G40U, the self-cleavage stood at 0.155.

In the case of A70U A77G, the self-cleavage turned out to be 0.665.

Take G40A U47C: the self-cleavage is 1.03.

On to G11A C21G, for which the self-cleavage turned out to be 0.04.

As to C58U U72G, the self-cleavage amounted to 0.431.

With C18A C64G, the self-cleavage was 0.0678.

Regarding A45U A78G, the self-cleavage stood at 0.571.

Turning to A51U C58U, the self-cleavage was determined as 1.17.
